Patent publication US20140087995A1 (published 2014)
Numbered stars: 1 amine (or outer) side, 2 acyl side, 3 side chain; on linkers, the order of the positions; unused ones are H or OH. Bridge positions count the residues as written; N and C are the ends. Side chains are listed from the residue outwards. Ends that are not written are not given here. * marks the point of attachment. C20 diacid = O=C(O)CCCCCCCCCCCCCCCCCCC(=O)*; γGlu = O=C(O)[C@H](CCC(=O)[*:2])N[*:1]; AEEA = NCCOCCOCC(=O)O

T1: human calcitonin receptor (human, UniProt P30988 25-474)
T1 construct: whole, on cells; also called hCTR; hCT
T1 sequence (looked up): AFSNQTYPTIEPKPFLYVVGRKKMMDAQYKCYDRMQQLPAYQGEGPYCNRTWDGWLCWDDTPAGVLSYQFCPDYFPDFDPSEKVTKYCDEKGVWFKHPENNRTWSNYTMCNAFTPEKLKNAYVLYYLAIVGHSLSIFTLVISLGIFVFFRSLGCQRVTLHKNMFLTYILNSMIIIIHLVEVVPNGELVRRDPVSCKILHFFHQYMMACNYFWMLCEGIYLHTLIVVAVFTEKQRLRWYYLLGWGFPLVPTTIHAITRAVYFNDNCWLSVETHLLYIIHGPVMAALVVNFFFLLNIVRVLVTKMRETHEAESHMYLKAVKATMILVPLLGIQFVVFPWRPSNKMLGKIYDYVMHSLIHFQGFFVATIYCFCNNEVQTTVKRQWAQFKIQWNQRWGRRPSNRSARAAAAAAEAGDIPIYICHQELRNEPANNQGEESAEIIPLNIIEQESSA

T2: human calcitonin receptor (human, UniProt P30988 25-474)
T2 construct: whole, on cells; Used as cell membranes prepared from the transfected BHK cells (Assay VII), not as intact cells; also called hCTR; hCT
T2 sequence (looked up): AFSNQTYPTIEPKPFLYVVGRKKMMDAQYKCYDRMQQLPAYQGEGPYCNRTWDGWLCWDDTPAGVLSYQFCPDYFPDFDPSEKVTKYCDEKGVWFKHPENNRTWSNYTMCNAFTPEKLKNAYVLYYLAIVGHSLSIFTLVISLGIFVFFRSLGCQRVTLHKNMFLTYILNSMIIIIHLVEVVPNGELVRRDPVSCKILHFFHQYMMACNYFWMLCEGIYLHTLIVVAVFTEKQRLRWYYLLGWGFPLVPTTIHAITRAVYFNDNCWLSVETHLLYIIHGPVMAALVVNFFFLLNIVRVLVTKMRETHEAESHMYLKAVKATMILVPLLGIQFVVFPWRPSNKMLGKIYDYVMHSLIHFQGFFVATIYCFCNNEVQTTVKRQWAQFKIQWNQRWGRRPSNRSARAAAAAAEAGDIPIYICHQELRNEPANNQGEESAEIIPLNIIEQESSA


Key:
[1] = target: T1, human calcitonin receptor; test: SPA competition with 125I-calcitonin, membranes of BHK hCTR cells (Assay VII)
Experimental: Membranes were prepared in the following way; the cells were rinsed with PBS and incubated with Versene for approximately 5 min before harvesting. The cells were flushed with PBS and the cell-suspension was centrifuged for 5 min at 1000 rpm. Cells were homogenized (Ultrathurrax) in a buffer containing 20 mM Na-HEPES and 10 mM EDTA (pH 7.4) and centrifuged at 20.000 rpm for 15 min. The resulting pellet was resuspended, homogenized and centrifuged (20.000 rpm, 15 min) in a buffer containing 20 mM Na-HEPES and 0.1 mM EDTA (pH 7.4, buffer 2). The resulting pellet was resuspended in buffer 2 and protein concentration was measured (BCA protein Assay, Pierce). The homogenate was kept cold during the whole procedure. The membranes were kept at −80° C. until use. Assay was performed in a 384 well Optiplate (PerkinElmer) in a total volume of 40 ul. Membranes were mixed with SPA beads. Final concentration of membranes 35 ng/μL final and Final concentration of SPA beads was 0.05 mg/well. Test-compounds were dissolved in DMSO and further diluted in assay buffer (50 mM Hepes, pH 7.4, 1 mM CaCl2, 5 mM MgCl₂, 0.1% OA and 0.02% Tween20). […] The final mixture was incubated for 120 min with shaking at 400 rpm at 25° C. prior to centrifugation (1500 rpm, 10 min). Samples were analyzed on TopCounter™ (Packard). The […] was calculated using (one site binding competition analysis) GraphPad Prism5 as a measure of receptor affinity.

[2] = target: T2, human calcitonin receptor; test: SPA competition against 125I-calcitonin, membranes with human calcitonin receptor (Assay VII)
Summary of the method: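 BHK hCTR membranes 35 ng/μL + SPA beads 0.05 mg/well; buffer 50 mM Hepes pH 7.4, 1 mM CaCl2, 5 mM MgCl₂, 0.1% OA, 0.02% Tween20. 120 min, 25° C., shaking. Scintillation count; IC50 by one-site binding competition.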

Binder	IC50 [1] [nM]	IC50 [2] [nM]
KCNTATCATQRLANFLRHSSPNFGAIPSSTNVGSKTY (C20 diacid-gGlu on alpha amino group of N-terminal Lys 1; disulfide Cys2-Cys7; C-terminal amide (as human amylin), also called compound 34) [N^α1-[(4S)-4-carboxy-4-(19-carboxynonadecanoylamino)butanoyl]-[Arg17,Pro21,Pro27,Lys35]-h-amylin]	73.4	–
KCNTATCATQRLANFLRHSSPNFGAIPSSTNVGSETY (C20 diacid-gGlu on alpha amino group of N-terminal Lys 1; disulfide Cys2-Cys7; C-terminal amide (as human amylin), also called compound 23) [N^α1-[(4S)-4-carboxy-4-(19-carboxynonadecanoylamino)butanoyl]-[Arg17,Pro21,Pro27,Glu35]-h-amylin]	21.8	–
K([γGlu-C20 diacid])CNTATCATQRLANFLRHSSPNFGAIPSSTNVGSNTY-NH2 (disulfide 2-7; N-terminus assumed; SMILES CC[C@H](C)[C@H](NC(=O)[C@H](C)NC(=O)CNC(=O)[C@H](Cc1ccccc1)NC(=O)[C@H](CC(N)=O)NC(=O)[C@@H]1CCCN1C(=O)[C@H](CO)NC(=O)[C@H](CO)NC(=O)[C@H](Cc1c[nH]cn1)NC(=O)[C@H](CCCNC(=N)N)NC(=O)[C@H](CC(C)C)NC(=O)[C@H](Cc1ccccc1)NC(=O)[C@H](CC(N)=O)NC(=O)[C@H](C)NC(=O)[C@H](CC(C)C)NC(=O)[C@H](CCCNC(=N)N)NC(=O)[C@H](CCC(N)=O)NC(=O)[C@@H](NC(=O)[C@H](C)NC(=O)[C@@H]1CSSC[C@H](NC(=O)[C@@H](N)CCCCNC(=O)CC[C@H](NC(=O)CCCCCCCCCCCCCCCCCCC(=O)O)C(=O)O)C(=O)N[C@@H](CC(N)=O)C(=O)N[C@@H]([C@@H](C)O)C(=O)N[C@@H](C)C(=O)N[C@@H]([C@@H](C)O)C(=O)N1)[C@@H](C)O)C(=O)N1CCC[C@H]1C(=O)N[C@@H](CO)C(=O)N[C@@H](CO)C(=O)N[C@H](C(=O)N[C@@H](CC(N)=O)C(=O)N[C@H](C(=O)NCC(=O)N[C@@H](CO)C(=O)N[C@@H](CC(N)=O)C(=O)N[C@H](C(=O)N[C@@H](Cc1ccc(O)cc1)C(N)=O)[C@@H](C)O)C(C)C)[C@@H](C)O, also called compound 48) [N^ε1-[(4S)-4-carboxy-4-(19-carboxynonadecanoylamino)butanoyl]-[Arg17,Pro21,Pro27]-h-amylin]	–	30.9
K([AEEA-γGlu-C20 diacid])RCNTATCATQRLANFLRHSSPNFGAIPSSTNVGSHTY-NH2 (disulfide 3-8; N-terminus assumed; SMILES CC[C@H](C)[C@H](NC(=O)[C@H](C)NC(=O)CNC(=O)[C@H](Cc1ccccc1)NC(=O)[C@H](CC(N)=O)NC(=O)[C@@H]1CCCN1C(=O)[C@H](CO)NC(=O)[C@H](CO)NC(=O)[C@H](Cc1c[nH]cn1)NC(=O)[C@H](CCCNC(=N)N)NC(=O)[C@H](CC(C)C)NC(=O)[C@H](Cc1ccccc1)NC(=O)[C@H](CC(N)=O)NC(=O)[C@H](C)NC(=O)[C@H](CC(C)C)NC(=O)[C@H](CCCNC(=N)N)NC(=O)[C@H](CCC(N)=O)NC(=O)[C@@H](NC(=O)[C@H](C)NC(=O)[C@@H]1CSSC[C@H](NC(=O)[C@H](CCCNC(=N)N)NC(=O)[C@@H](N)CCCCNC(=O)COCCOCCNC(=O)CC[C@H](NC(=O)CCCCCCCCCCCCCCCCCCC(=O)O)C(=O)O)C(=O)N[C@@H](CC(N)=O)C(=O)N[C@@H]([C@@H](C)O)C(=O)N[C@@H](C)C(=O)N[C@@H]([C@@H](C)O)C(=O)N1)[C@@H](C)O)C(=O)N1CCC[C@H]1C(=O)N[C@@H](CO)C(=O)N[C@@H](CO)C(=O)N[C@H](C(=O)N[C@@H](CC(N)=O)C(=O)N[C@H](C(=O)NCC(=O)N[C@@H](CO)C(=O)N[C@@H](Cc1c[nH]cn1)C(=O)N[C@H](C(=O)N[C@@H](Cc1ccc(O)cc1)C(N)=O)[C@@H](C)O)C(C)C)[C@@H](C)O, also called compound 45)	–	14.8

Continued, values first:

IC50 [1] [nM]	IC50 [2] [nM]	Binder
15.5	–	{C20 diacid-γGlu-γGlu}-KCNTATCATQRLAEFLRHSSPNFGAIPSSTNVGSNTY-NH2 (disulfide 2-7; SMILES CC[C@H](C)[C@H](NC(=O)[C@H](C)NC(=O)CNC(=O)[C@H](Cc1ccccc1)NC(=O)[C@H](CC(N)=O)NC(=O)[C@@H]1CCCN1C(=O)[C@H](CO)NC(=O)[C@H](CO)NC(=O)[C@H](Cc1c[nH]cn1)NC(=O)[C@H](CCCNC(=N)N)NC(=O)[C@H](CC(C)C)NC(=O)[C@H](Cc1ccccc1)NC(=O)[C@H](CCC(=O)O)NC(=O)[C@H](C)NC(=O)[C@H](CC(C)C)NC(=O)[C@H](CCCNC(=N)N)NC(=O)[C@H](CCC(N)=O)NC(=O)[C@@H](NC(=O)[C@H](C)NC(=O)[C@@H]1CSSC[C@H](NC(=O)[C@H](CCCCN)NC(=O)CC[C@H](NC(=O)CC[C@H](NC(=O)CCCCCCCCCCCCCCCCCCC(=O)O)C(=O)O)C(=O)O)C(=O)N[C@@H](CC(N)=O)C(=O)N[C@@H]([C@@H](C)O)C(=O)N[C@@H](C)C(=O)N[C@@H]([C@@H](C)O)C(=O)N1)[C@@H](C)O)C(=O)N1CCC[C@H]1C(=O)N[C@@H](CO)C(=O)N[C@@H](CO)C(=O)N[C@H](C(=O)N[C@@H](CC(N)=O)C(=O)N[C@H](C(=O)NCC(=O)N[C@@H](CO)C(=O)N[C@@H](CC(N)=O)C(=O)N[C@H](C(=O)N[C@@H](Cc1ccc(O)cc1)C(N)=O)[C@@H](C)O)C(C)C)[C@@H](C)O, also called compound 15)
17.1	–	KCNTATCATQRLANFLRHSSPNFGAIPSSTNVGHNTY (C20 diacid-gGlu on alpha amino group of N-terminal Lys 1; disulfide Cys2-Cys7; C-terminal amide (as human amylin), also called compound 40) [N^α1-[(4S)-4-carboxy-4-(19-carboxynonadecanoylamino)butanoyl]-[Arg17,Pro21,Pro27,His34]-h-amylin]
20.4	–	KCNTATCATQRLAEFLRHSSPNFGAIPSSTNVGSNTY (C20 diacid-gGlu-2xOEG on alpha amino group of N-terminal Lys 1; disulfide Cys2-Cys7; C-terminal amide (as human amylin), also called compound 19)
12.5	–	{C20 diacid-γGlu}-KCNTATCATQRLANFLRHSSPNFGAIPSSTPVGSETY-NH2 (disulfide 2-7; SMILES CC[C@H](C)[C@H](NC(=O)[C@H](C)NC(=O)CNC(=O)[C@H](Cc1ccccc1)NC(=O)[C@H](CC(N)=O)NC(=O)[C@@H]1CCCN1C(=O)[C@H](CO)NC(=O)[C@H](CO)NC(=O)[C@H](Cc1c[nH]cn1)NC(=O)[C@H](CCCNC(=N)N)NC(=O)[C@H](CC(C)C)NC(=O)[C@H](Cc1ccccc1)NC(=O)[C@H](CC(N)=O)NC(=O)[C@H](C)NC(=O)[C@H](CC(C)C)NC(=O)[C@H](CCCNC(=N)N)NC(=O)[C@H](CCC(N)=O)NC(=O)[C@@H](NC(=O)[C@H](C)NC(=O)[C@@H]1CSSC[C@H](NC(=O)[C@H](CCCCN)NC(=O)CC[C@H](NC(=O)CCCCCCCCCCCCCCCCCCC(=O)O)C(=O)O)C(=O)N[C@@H](CC(N)=O)C(=O)N[C@@H]([C@@H](C)O)C(=O)N[C@@H](C)C(=O)N[C@@H]([C@@H](C)O)C(=O)N1)[C@@H](C)O)C(=O)N1CCC[C@H]1C(=O)N[C@@H](CO)C(=O)N[C@@H](CO)C(=O)N[C@H](C(=O)N1CCC[C@H]1C(=O)N[C@H](C(=O)NCC(=O)N[C@@H](CO)C(=O)N[C@@H](CCC(=O)O)C(=O)N[C@H](C(=O)N[C@@H](Cc1ccc(O)cc1)C(N)=O)[C@@H](C)O)C(C)C)[C@@H](C)O, also called compound 28)
19.3	–	KCNTATCATQRLANFLRHSSPNFGAIPSSTNVGRNTY (C20 diacid-gGlu on alpha amino group of N-terminal Lys 1; disulfide Cys2-Cys7; C-terminal amide (as human amylin), also called compound 39) [N^α1-[(4S)-4-carboxy-4-(19-carboxynonadecanoylamino)butanoyl]-[Arg17,Pro21,Pro27,Arg34]-h-amylin]
